Where no end group is shown, it is not given here.
Key:
[1] = target: phoenixin binding sites on rat pituitary adenoma cells, RC-4B/C (rat); test: displacement of 50 pM 125I-Y0-Phoenixin-20 amide from RC-4B/C cells, gamma counting
[2] = target: antibodies raised to …-NH2 (SEQ. ID NO: 7); test: RIA or EIA, competitive immunoassay with antibodies raised to SEQ ID NO: 7; standard peptide not named

Row | IC50 [1] | EC50 [2] | Binder
1 | 17.9 nM | – | DVQPPGLKVWSDPF-NH2 [phoenixin-14 amide, …-NH2]
2 | 21.5 nM | 0.2 ng/mL | AGIVQEDVQPPGLKVWSDPF-NH2 [Phoenixin-20 amide, …-NH2]
